Experimental data taken from patent US20140105855A1.

Biological target: preformed IL-17RA-IL-17A complex (IL-17A captured by immobilised IL-17RA) (human) (UniProt Q16552)
Assay: SPR, second receptor injected over IL-17A captured on immobilised IL-17RA

preformed IL-17RA-IL-17A complex (IL-17A captured by immobilised IL-17RA) (human), sequence (Q16552 other isoform, or with tags, fused parts or gaps): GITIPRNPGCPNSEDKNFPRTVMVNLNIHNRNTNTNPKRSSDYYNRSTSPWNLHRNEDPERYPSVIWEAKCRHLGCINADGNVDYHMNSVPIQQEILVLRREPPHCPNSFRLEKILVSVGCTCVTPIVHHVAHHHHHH

Kd: 3.1 µM
Substance: IL-17RA extracellular domain (ECD) (receptor)
